Experimental data reported in publication PMC5180416 (Journal of the American Chemical Society, 2012).
Read-outs that look alike come from different tables or passages of the source. Square brackets hold non-standard residues; d marks the D form. ACPC = not defined here; Ac3c = NC1(C(=O)O)CC1

How the values were obtained:
[1] = molecular target: T1, WDR5 (WD (Trp-Asp) repeat domain 5) (UniProt P61964 1-334); assay: fluorescence polarisation
[2] = molecular target: T1, WDR5 (WD (Trp-Asp) repeat domain 5); assay: fluorescence polarisation; remark: listed apart in the source

Binder | Ki [1] [nM] | Ki [2] [nM]
Ac-Val-Arg-[ACPC]-NH2 (reading uncertain) [VR-ACPC] | 600 | –
Ac-[Ac3c]-Arg-Val-NH2 [ACPC-RV] | – | 60
